The target of assay [1] is T1, recombinant SARS-CoV-2 RBD protein (wild-type) (SARS-CoV-2; human, UniProt P0DTC2 306-543).
T1 construct: range 306-543
The experiment in a line: ELISA (FIG. 18A).

For assay [2], the target named is T1, recombinant SARS-CoV-2 RBD protein …. As to the kind of experiment: ELISA (FIG. 18B).
The target is the same in assay [3]. The experiment in a line: ELISA (FIG. 18C).
For assay [4] the target is unchanged. The experiment in a line: ELISA (FIG. 18E).

B1: A-1H4 antibody (format in FIG. 18 not stated) (antibody, V domains shown)
VH: EVQLVESGGGLVQPGRSLRLSCAASGFTVSSNYMSWVRQAPGKGLEWVSGIYSGGSTYYADSVKGRFTISRDNSKNTLYLQMNSLRAEDTAVYYCARDLQEAGAFDIWGQGTMVTVSS
VL: ELQLTQSPSFLSASVGDRVTITCRASQGISSYLAWYQQKPGKAPKLLIYAASTLQSGVPSRFSGSGSGTEFTLTISSLQPEDFATYYCQQLNSYPRLTFGGGTKVEIK
Turning to B1, in assay [1], the binding result is listed as “binds”.

B2: A-2F1 antibody (format in FIG. 18 not stated) (antibody, V domains shown)
VH: QVQLVQSGGGLIQPGGSLRLSCAASGVTVSSNYMSWVRQAPGKGLEWVSVIYSGGSTFYADSVKGRFTISRDNSKNTLYLQMNSLRAEDTAVYYCARDLMEAGGMDVWGQGSTVTVSS
VL: ELALTQPPSASGSPGQSVTISCTASSSDIGASNHVAWYQQNPGKAPKLMIYGVSGRPSGVPDRFSGSKSGNTASLTVSGLQAEDEADYYCSSYAGSNILIFGGGTKLTVL
Consider B2, for which the binding result in assay [2] is given as “binds”.

B3: A-2H4 antibody (format in FIG. 18 not stated) (antibody, V domains shown)
VH: QMQLVESGGGLVQPGRSLRLSCAASGFTFSVYGMHWVRQAPGKGLEWVAVISYDGSNKYYADSVKGRFSISRDNSKNTLYLQMNSLRGEDTAVYYCAKGGPRPVVKAYGELDYYGMDVWGQGTTVTVSS
VL: ELALTQPASVSGSPGQSITISCTGTSSDIGGYEYVSWYQQHPGKAPKLIIYDVRDRPSGISNRFSGSKSGNTASLIISSLQAGDEADYYCFSYTSSGTYVFGSATKVTVL
Regarding B3, the binding result in assay [3] was “binds”.

B4: E-3G9 antibody (format in FIG. 18 not stated) (antibody, V domains shown)
VH: QMQLVQSGAEVKKPGASVKVSCKASGHTITSYYMHWVRQAPGQGLEWMGIINPSGGSTSYAQKFQGRVTMTRDTSTSTVYMELSSLRSEDTAVYYCAREGVWDSSGYSSFDYWGQGTLVTVSS
VL: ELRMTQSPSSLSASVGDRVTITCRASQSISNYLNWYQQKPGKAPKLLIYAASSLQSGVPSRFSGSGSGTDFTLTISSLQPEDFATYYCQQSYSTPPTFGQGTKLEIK
For B4, in assay [4], the binding result is recorded as “binds”.
